Earlier results in article PMC2868910.

Molecular target: thrombomodulin (Homo sapiens) (UniProt P07204)

For thrombin (from UniProt P00734), the Kd is listed as 0.5 nM.
